The target in one experiment is T1, 金黄色葡萄球菌肠毒素A (Staphylococcus aureus, UniProt P0A0L2 25-257).
T1 sequence: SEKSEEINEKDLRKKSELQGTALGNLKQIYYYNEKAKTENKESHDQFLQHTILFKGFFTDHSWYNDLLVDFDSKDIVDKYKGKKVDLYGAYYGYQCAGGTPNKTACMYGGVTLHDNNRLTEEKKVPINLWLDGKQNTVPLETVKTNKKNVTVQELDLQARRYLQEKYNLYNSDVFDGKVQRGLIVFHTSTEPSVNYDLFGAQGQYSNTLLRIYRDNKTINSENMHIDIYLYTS
In words: phage ELISA on coated SEA.

The target of a further experiment is T2, 金黄色葡萄球菌肠毒素B (Staphylococcus aureus, UniProt P01552 28-266).
T2 sequence: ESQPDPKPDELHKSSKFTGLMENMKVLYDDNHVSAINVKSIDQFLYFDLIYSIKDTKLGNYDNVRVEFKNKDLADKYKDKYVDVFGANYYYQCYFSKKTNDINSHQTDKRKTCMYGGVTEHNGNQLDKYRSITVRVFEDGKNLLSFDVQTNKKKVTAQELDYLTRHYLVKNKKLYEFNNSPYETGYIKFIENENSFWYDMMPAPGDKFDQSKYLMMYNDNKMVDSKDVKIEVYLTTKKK
In words: direct ELISA, antigen coated, HRP-conjugated nanobody.

B1: 金黄色葡萄球菌肠毒素A纳米抗体A13 (VHH)
VHH: ESGGGSVQAGGSLRLSCAASGDAYMCKCMGWFRQGPGKEREKVAAIYITDGSTYYADSVKGRFTLSQDNAKNTVYLQMNSLKPEDTAMYYCAASTFYGCETGLHGYNYWGQGTQVTVS
Consider B1, for which the figures for the binding result in the experiment with 金黄色葡萄球菌肠毒素A and with 金黄色葡萄球菌肠毒素B were “binds” and “no binding (tested: 500ng/mL (coating))”, respectively.

These data come from CN110526967A (UNIV NORTHWEST A&F, dated 2019).
